Source: patent US20180291110A1 (Hoffmann-La Roche, published 2018)
Substitutions are numbered along the chain they refer to.

B1: 2/99 VH6/VL12 (antibody, V domains shown)
VH: QQLVETGGGLIQPGGSLRLSCAASGFSLSSYAMSWVRQAPGKGLEWIGYIWSGGSTDYADSVKGRFTISRDNSKNTLYLQMNSLRAEDTAVYYCARRYGTSYPDYGDANGFDPWGQGTLVTVSS
VL: DIQMTQSPSSLSASVGDRVTITCRASQSISSYLAWYQQKPGKAPKLLIYRASTLASGVPSRFSGSRSGTDFTLTISSLQPEDFATYYCQQHYSSSNVDNTFGGGTKVEIK
B2: 2/99 VH5/VL14 (antibody, V domains shown)
VH: B1 VH with Q2S, L3M, V4E, I47V, Q116P
VL: DIVMTQSPDSLAVSLGERATINCKSSQSISSYLSWYQQKPGQRPKLLIYRASTLASGVPDRFSGSGSGTDFTLTISSLQAEDVAVYYCQQSYSSSNVDNTFGGGTKVEIK
B3: 2/99 VH11/VL14 (antibody, V domains shown)
VH: B1 VH with V4L, T6S, I11V, I47V
VL: B2 VL
B4: 2/99 VH12/VL12 (antibody, V domains shown)
VH: QVQLQESGPGLVKPSETLSLTCTVSGFSLSSYAMSWIRQPPGKGLEWIGYIWSGGSTDYNPSLKSRVTISVDTSKNQFSLKLSSVTAADTAVYYCARRYGTSYPDYGDANGFDPWGQGTLVTVSS
VL: B1 VL
B5: 2/99 VH20/VL12 (antibody, V domains shown)
VH: QSMQESGPGLVKPSQTLSLTCTVSGFSLSSYAMSWIRQHPGKGLEWIGYIWSGGSTDYAPSLKSRVTISVDTSKNQVSLKLSSVTAADTAVYYCARRYGTSYPDYGDANGFDPWGQGTLVTVSS
VL: B1 VL
B6: 2/99 VH9/VL14 (antibody, V domains shown)
VH: B1 VH with V4L, T6S, I11V, S27T, L28F, I47V, R96K
VL: B2 VL
B7: 2/99 VH15/VL12 (antibody, V domains shown)
VH: B5 VH with S2Q, M3L, Q15E, I36V, H39P, A59N
VL: B1 VL
B8: 2/99 VH19/VL12 (antibody, V domains shown)
VH: B5 VH with V77F
VL: B1 VL
B9: 2/99 VH9/VL12 (antibody, V domains shown)
VH: B1 VH with V4L, T6S, I11V, S27T, L28F, I47V, R96K
VL: B1 VL
B10: 2/99 VH7/VL12 (antibody, V domains shown)
VH: B1 VH with D60S, S61W, V62A
VL: B1 VL
B11: 2/99 VH11/VL12 (antibody, V domains shown)
VH: B1 VH with V4L, T6S, I11V, I47V
VL: B1 VL
B12: 2/99 VH21/VL12 (antibody, V domains shown)
VH: B5 VH with P60S, S61W, L62A
VL: B1 VL
B13: 2/99 VH22/VL12 (antibody, V domains shown)
VH: B5 VH with I36V, P60S, S61W, L62A
VL: B1 VL
B14: 2/99 VH13/VL12 (antibody, V domains shown)
VH: B4 VH with F78V
VL: B1 VL
B15: 2/99 VH16/VL12 (antibody, V domains shown)
VH: B5 VH with S2Q, M3L, Q15E, I36V, H39P, A59N, Q116P
VL: B1 VL
B16: 2/99 VH17/VL12 (antibody, V domains shown)
VH: B5 VH with S2Q, M3L, Q15E, I36V, H39P, A59N, V70K, Q116P
VL: B1 VL
B17: 2/99 VH7/VL14 (antibody, V domains shown)
VH: B1 VH with D60S, S61W, V62A
VL: B2 VL
B18: 2/99 VH8/VL12 (antibody, V domains shown)
VH: QQLVETGGGLIQPGGSLRLSCAASGFSLSSYAMSWVRQAPGKGLEWIGYIWSGGSTDYASWAKGRFTISKTSTTLYLQMNSLRAEDTAVYYCARRYGTSYPDYGDANGFDPWGQGTLVTVSS
VL: B1 VL
B19: 2/99 VH1/VL14 (antibody, V domains shown)
VH: B1 VH with Q1V, I47V
VL: B2 VL
B20: 2/99 VH18/VL12 (antibody, V domains shown)
VH: B4 VH with E16Q, P40H, N60A
VL: B1 VL
B21: 2/99 VH6/VL14 (antibody, V domains shown)
VH: B1 VH
VL: B2 VL
B22: 2/99 VH1/VL15 (antibody, V domains shown)
VH: B1 VH with Q1V, I47V
VL: B2 VL with S34I, R43P, S91A
B23: 2/99 VH2/VL14 (antibody, V domains shown)
VH: EVQLVETGGGLIQPGGSLRLSCAASGFSLSSYAMSWVRQAPGKGLEWVGYIWSGGSTDYADSVKGRFTISRDNSKNTLYLQMNSLRAEDTAVYYCARRYGTSYPDYGDANGFDPWGQGTLVTVSS
VL: B2 VL
B24: 2/99 VH23-DANG/VL14 (antibody, V domains shown)
VH: QSMQESGPGLVKPSQTLSLTCTVSGFSLSSYAMSWIRQHPGKGLEWIGYIWSGGSTDYASWAKSRVTISKTSTTVSLKLSSVTAADTAVYYCARRYGTSYPDYGDANGFDPWGQGTLVTVSS
VL: B2 VL
B25: 2/99 VH22/VL14 (antibody, V domains shown)
VH: B5 VH with I36V, P60S, S61W, L62A
VL: B2 VL
B26: 2/99 VH15/VL14 (antibody, V domains shown)
VH: B5 VH with S2Q, M3L, Q15E, I36V, H39P, A59N
VL: B2 VL
B27: 2/99 VH13/VL14 (antibody, V domains shown)
VH: B4 VH with F78V
VL: B2 VL
B28: 2/99 VH17/VL14 (antibody, V domains shown)
VH: B5 VH with S2Q, M3L, Q15E, I36V, H39P, A59N, V70K, Q116P
VL: B2 VL
B29: 2/99 VH21/VL14 (antibody, V domains shown)
VH: B5 VH with P60S, S61W, L62A
VL: B2 VL
B30: 2/99 VH18/VL14 (antibody, V domains shown)
VH: B4 VH with E16Q, P40H, N60A
VL: B2 VL
B31: 2/99 VH8/VL14 (antibody, V domains shown)
VH: B18 VH
VL: B2 VL
B32: 2/99 VH12/VL14 (antibody, V domains shown)
VH: B4 VH
VL: B2 VL
B33: 2/99 VH16/VL14 (antibody, V domains shown)
VH: B5 VH with S2Q, M3L, Q15E, I36V, H39P, A59N, Q116P
VL: B2 VL
B34: 2/99 VH20/VL14 (antibody, V domains shown)
VH: B5 VH
VL: B2 VL
B35: 2/99 VH19/VL14 (antibody, V domains shown)
VH: B5 VH with V77F
VL: B2 VL

molecular target: T1, human transferrin receptor (recombinant, for surface plasmon resonance) (human, UniProt P02786 89-760); test: SPR 25C
T1 construct: also called huTfR; human transferrin receptor-biotinylated
T1 sequence (P02786 89-760 limits assumed): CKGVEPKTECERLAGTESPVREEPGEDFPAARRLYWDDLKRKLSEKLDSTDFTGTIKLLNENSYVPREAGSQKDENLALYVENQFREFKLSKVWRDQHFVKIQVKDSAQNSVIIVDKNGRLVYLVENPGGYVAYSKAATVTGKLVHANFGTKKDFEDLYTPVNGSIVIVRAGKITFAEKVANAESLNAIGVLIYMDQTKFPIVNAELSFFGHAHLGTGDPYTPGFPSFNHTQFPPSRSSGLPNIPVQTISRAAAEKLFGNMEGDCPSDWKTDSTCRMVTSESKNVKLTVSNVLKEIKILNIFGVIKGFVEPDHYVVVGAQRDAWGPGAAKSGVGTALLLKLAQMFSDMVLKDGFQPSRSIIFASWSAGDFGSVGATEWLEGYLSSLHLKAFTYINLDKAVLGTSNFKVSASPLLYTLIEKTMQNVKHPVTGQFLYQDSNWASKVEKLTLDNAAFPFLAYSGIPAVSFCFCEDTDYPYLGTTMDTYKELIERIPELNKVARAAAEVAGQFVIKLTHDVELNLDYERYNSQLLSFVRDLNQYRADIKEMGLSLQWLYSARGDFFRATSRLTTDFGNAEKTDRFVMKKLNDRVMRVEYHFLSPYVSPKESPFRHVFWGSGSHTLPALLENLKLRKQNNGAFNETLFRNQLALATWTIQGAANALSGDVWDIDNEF

Binder | koff
B1 | 0.00778 s⁻¹
B2 | 0.00233 s⁻¹
B3 | 0.00351 s⁻¹
B4 | 0.001 s⁻¹
B5 | 0.001 s⁻¹
B6 | 0.00332 s⁻¹
B7 | 0.00764 s⁻¹
B8 | 0.001 s⁻¹
B9 | 0.001 s⁻¹
B10 | 0.00775 s⁻¹
B11 | 0.00787 s⁻¹
B12 | 0.00754 s⁻¹
B13 | 0.00644 s⁻¹
B14 | 0.00785 s⁻¹
B15 | 0.00754 s⁻¹
B16 | 0.00284 s⁻¹
B17 | 0.00153 s⁻¹
B18 | 0.00672 s⁻¹

Binder | koff
B19 | 0.00299 s⁻¹
B20 | 0.001 s⁻¹
B21 | 0.0022 s⁻¹
B22 | 0.00669 s⁻¹
B23 | 0.00244 s⁻¹
B24 | 0.000733 s⁻¹
B25 | 0.00112 s⁻¹
B26 | 0.00194 s⁻¹
B27 | 0.00222 s⁻¹
B28 | 0.00105 s⁻¹
B29 | 0.00103 s⁻¹
B30 | 0.003 s⁻¹
B31 | 0.00104 s⁻¹
B32 | 0.00546 s⁻¹
B33 | 0.00175 s⁻¹
B34 | 0.00239 s⁻¹
B35 | 0.00796 s⁻¹
